Target: PPARγ (plasmid-encoded, Addgene #8862) (UniProt P37238)

PPRE luciferase reporter in 293T cells, PPARγ co-transfected with WT ZFP407 against PPARγ alone: > 2 fold
Substance: ZFP407 (plasmid-encoded, Origene cat. MR214555) (natural protein)

Source: PMC11115250
